Laboratory results published in patent US20200172619A1 (UNIVERSIT T STUTTGART, published 2020).
Read-outs that look alike come from different tables or passages of the source.

Key:
Her3-Fc fusion protein = target: T1, Her3-Fc fusion protein (human, UniProt P21860 20-643); assay: ELISA, immobilized Her3-Fc fusion protein
T1 construct: also called immobilized Her3-Fc fusion protein; not shown: Fc part not described

[1] = target: MCSP (melanoma-associated chondroitin sulfate proteoglycan) on WM35 cells (human, UniProt Q6UVK1 30-2322); assay: cell-based or functional assay
[2] = target: T2, TNFR1 on the surface of cells (HT1080, HeLa, Kym-1) (human, UniProt P19438 30-455); assay: cell-based or functional assay
T2 sequence (looked up): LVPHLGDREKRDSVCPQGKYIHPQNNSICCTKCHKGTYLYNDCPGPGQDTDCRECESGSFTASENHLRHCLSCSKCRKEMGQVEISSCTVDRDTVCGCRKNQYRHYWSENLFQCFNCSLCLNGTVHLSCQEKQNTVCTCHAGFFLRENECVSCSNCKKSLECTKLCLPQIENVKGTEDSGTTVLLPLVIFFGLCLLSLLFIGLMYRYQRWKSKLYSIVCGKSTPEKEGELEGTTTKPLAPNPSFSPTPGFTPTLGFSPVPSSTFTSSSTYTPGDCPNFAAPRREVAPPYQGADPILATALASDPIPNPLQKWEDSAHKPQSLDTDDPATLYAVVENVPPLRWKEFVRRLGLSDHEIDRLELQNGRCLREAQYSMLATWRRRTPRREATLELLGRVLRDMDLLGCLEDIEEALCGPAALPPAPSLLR

[3] = target: T2, TNFR1 on the surface of cells (HT1080, …); assay: cell-based or functional assay; remark: listed apart in the source
[4] = target: T3, human TNFR1-Fc fusion protein (human, UniProt P19438 30-211); assay: ELISA, immobilized human TNFR1-Fc
T3 construct: Provided by Baliopharm AG; Coated at 1 ug/ml in the ELISA; also called huTNFR1-Fc; immobilized human TNFR1; not shown: Fc part not described
T3 sequence (looked up): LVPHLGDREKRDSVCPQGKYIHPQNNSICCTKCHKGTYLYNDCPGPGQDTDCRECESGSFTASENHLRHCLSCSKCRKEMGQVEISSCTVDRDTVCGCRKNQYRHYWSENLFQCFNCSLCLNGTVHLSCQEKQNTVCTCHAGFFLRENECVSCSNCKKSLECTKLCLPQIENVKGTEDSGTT
Experimental: (§1) Microtiter plates were coated with 100 μl of TNFFR1-Fc fusion protein (1 μg/ml in PBS) and incubated at 4° C. overnight. The residual binding sites were blocked with 2% MPBS (skim milk in PBS, 200 μl per well) at room temperature for 2 hours and subsequently washed twice with PBS. 100 μl of the samples diluted in 2% MPBS were incubated at room temperature for 1 hour prior to the last incubation step with 100 μl of the HRP conjugated detection antibodies in 2% MPBS. Bound protein was detected with 100 μl TMB substrate solution, the HRP-reaction was stopped by the addition of 50 μl 1 M H2SO4 and the absorption at the wavelength of 450 nm was measured using the Infinite microtiter plate reader (TECAN, Maennedorf, Switzerland). Between each incubation step and in advance of the detection, the plates were washed three times with PBST and twice with PBS.

[5] = target: T3, human TNFR1-Fc fusion protein; assay: ELISA, immobilized human TNFR1-Fc; remark: listed apart in the source
Experimental: Microtiter plates were coated with 100 μl of TNFFR1-Fc fusion protein (1 μg/ml in PBS) and incubated at 4° C. overnight.

[6] = target: T3, human TNFR1-Fc fusion protein; assay: ELISA, human TNFR1-Fc
Experimental: as §1

[7] = target: T2, TNFR1 on the surface of cells (HT1080, …); assay: cell-based or functional assay; remark: listed apart in the source
[8] = target: T2, TNFR1 on the surface of cells (HT1080, …); assay: cell-based or functional assay; remark: listed apart in the source
[9] = target: T3, human TNFR1-Fc fusion protein; assay: ELISA, immobilized human TNFR1-Fc; remark: listed apart in the source

MCSP (melanoma-associated chondroitin sulfate proteoglycan) on WM35 cells, sequence (Q6UVK1 30-2322): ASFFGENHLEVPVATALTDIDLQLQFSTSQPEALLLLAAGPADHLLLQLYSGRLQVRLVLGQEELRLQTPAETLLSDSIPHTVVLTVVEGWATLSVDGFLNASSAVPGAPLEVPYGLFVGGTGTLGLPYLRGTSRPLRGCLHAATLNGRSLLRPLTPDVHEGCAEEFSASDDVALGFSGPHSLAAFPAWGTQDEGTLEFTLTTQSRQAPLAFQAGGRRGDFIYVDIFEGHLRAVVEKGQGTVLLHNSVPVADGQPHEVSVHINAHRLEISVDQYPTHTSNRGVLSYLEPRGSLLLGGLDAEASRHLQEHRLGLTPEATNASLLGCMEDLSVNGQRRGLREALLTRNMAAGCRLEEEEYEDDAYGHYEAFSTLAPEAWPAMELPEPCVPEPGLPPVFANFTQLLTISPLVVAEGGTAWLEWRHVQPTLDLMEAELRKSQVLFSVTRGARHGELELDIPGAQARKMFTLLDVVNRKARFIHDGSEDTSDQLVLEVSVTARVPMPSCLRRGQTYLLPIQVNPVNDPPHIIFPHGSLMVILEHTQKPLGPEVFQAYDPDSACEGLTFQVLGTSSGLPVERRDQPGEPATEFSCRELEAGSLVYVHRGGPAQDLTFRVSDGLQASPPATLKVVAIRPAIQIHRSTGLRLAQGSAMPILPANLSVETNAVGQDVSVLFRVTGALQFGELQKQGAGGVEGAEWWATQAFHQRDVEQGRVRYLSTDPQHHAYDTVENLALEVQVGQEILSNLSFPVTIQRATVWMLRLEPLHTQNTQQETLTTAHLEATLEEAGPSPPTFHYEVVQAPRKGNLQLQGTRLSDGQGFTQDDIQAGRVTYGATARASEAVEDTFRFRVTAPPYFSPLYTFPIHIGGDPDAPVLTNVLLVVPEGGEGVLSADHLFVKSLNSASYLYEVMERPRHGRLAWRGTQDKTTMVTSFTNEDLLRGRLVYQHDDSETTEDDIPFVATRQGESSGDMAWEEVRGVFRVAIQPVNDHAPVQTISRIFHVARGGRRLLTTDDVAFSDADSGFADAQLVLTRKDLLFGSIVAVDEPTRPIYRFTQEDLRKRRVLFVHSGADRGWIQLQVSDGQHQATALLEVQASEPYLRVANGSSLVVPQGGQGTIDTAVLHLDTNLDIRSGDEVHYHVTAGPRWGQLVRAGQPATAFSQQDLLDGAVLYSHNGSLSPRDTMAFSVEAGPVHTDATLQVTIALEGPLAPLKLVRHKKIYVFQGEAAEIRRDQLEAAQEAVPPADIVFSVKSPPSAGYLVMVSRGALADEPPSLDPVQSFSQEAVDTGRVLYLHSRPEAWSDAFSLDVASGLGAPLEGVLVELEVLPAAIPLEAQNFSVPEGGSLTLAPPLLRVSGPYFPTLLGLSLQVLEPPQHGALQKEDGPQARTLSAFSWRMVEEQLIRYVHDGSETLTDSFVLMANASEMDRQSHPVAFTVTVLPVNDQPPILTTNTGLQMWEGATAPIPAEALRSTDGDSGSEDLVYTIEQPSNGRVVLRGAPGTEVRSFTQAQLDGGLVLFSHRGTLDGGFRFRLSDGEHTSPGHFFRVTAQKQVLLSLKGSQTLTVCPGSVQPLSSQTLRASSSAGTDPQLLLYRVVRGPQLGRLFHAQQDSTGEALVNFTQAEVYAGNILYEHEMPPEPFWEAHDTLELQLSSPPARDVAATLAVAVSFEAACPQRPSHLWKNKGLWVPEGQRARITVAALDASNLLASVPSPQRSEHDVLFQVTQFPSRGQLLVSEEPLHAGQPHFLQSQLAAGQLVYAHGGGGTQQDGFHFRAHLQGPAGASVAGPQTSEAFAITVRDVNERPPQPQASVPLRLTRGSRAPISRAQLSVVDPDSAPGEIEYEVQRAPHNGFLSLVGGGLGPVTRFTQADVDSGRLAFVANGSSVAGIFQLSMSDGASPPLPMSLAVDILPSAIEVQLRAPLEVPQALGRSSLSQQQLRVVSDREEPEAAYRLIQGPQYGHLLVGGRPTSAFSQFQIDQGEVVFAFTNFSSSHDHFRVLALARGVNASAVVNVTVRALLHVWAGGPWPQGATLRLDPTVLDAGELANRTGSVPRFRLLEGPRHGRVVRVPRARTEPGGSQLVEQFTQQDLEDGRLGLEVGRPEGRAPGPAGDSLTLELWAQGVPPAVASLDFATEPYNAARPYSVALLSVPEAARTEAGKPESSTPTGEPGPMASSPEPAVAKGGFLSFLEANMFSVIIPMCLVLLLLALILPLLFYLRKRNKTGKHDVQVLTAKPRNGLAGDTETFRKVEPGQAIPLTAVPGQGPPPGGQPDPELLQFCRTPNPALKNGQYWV

B1: Her3N-CD3C-hFc1k (bispecific antibody)
chain 1: QVQLQQSGPGLVKPSQTLSLTCAISGDSVSSNRAAWNWIRQSPSRGLEWLGRTYYRSKWYNDYAQSLKSRITINPDTPKNQFSLQLNSVTPEDTAVYYCARDGQLGLDALDIWGQGTMVTVSSGGGGSGGGGSGGGGSQAGLTQPPAVSVAPGQTASITCGRDNIGSRSVHWYQQKPGQAPVLVVYDDSDRPAGIPERFSGSNYENTATLTISRVEAGDEADYYCQVWGITSDHVVFGGGTKLTVLAAADKTHTCPPCPAPPVAGPSVFLFPPKPKDTLMISRTPEVTCVVVDVSHEDPEVKFNWYVDGVEVHNAKTKPREEQYNSTYRVVSVLTVLHQDWLNGKEYKCKVSNKGLPSSIEKTISKAKGQPREPSVFPLAPSSKSTSGGTAALGCLVKDYFPSDIAVEWESGALTSGVHTFPAVLQSSGLYSLSSVVTVPSSSLGTQTYSCSVMHEALHNHYTQKSVEPKSC
chain 2: DKTHTCPPCPAPPVAGPSVFLFPPKPKDTLMISRTPEVTCVVVDVSHEDPEVKFNWYVDGVEVHNAKTKPREEQYNSTYRVVSVLTVLHQDWLNGKEYKCKVSNKGLPSSIEKTISKAKGQPREPSVFIFPPSDEQLKSGTASVVCLVNNFYPRDIAVEWEVDNALQSGNSQESVTEQDSKDSTYSLSSTLTLSKADYEKHKVYSCSVMHEALHNHYTQKSFNRGECGGGGSGGGGSGGGGSGTDIQMTQSPSSLSASVGDRVTITCRASQDIRNYLNWYQQKPGKAPKLLIYYTSRLHSGVPSRFSGSGSGTDFTFTISSLQPEDIATYYCQQGNTLPWTFGQGTKLEIKRGGGGSGGGGSGGGGSQVQLVQSGAEVKKPGSSVKVSCKASGGTFSGYTMNWVRQAPGQGLEWMGLINPYKGVSTYNGKFKDRVTITADKSTSTAYMELSSLRSEDTAVYYCARSGYYGDSDWYFDVWGQGTLVTVSS
EC50 (Her3-Fc fusion protein): 0.1 nM

B2: MCSPN-CD3N-hFc1k (bispecific antibody)
chain 1: QVQLVQSGAEVKKPGASVKVSCKASGYTFTRSWMNWVRQAPGQGLEWMGRIYPGDGDTNYNGKFKGRVTMTRDTSTSTVYMELSSLRSEDTAVYYCARGNTVVVPYTMDYWGQGTTVTVSSGGGGSGGGGSGGGGSDIQMTQSPSSLSASVGDRVTITCRASESVDSYGNSFMHWYQQKPGKAPKLLIYLASNLESGVPSRFSGSGSGTDFTLTISSLQPEDFATYYCQQNNEDPLTFGGGTKVEIKRAAADKTHTCPPCPAPPVAGPSVFLFPPKPKDTLMISRTPEVTCVVVDVSHEDPEVKFNWYVDGVEVHNAKTKPREEQYNSTYRVVSVLTVLHQDWLNGKEYKCKVSNKGLPSSIEKTISKAKGQPREPSVFPLAPSSKSTSGGTAALGCLVKDYFPSDIAVEWESGALTSGVHTFPAVLQSSGLYSLSSVVTVPSSSLGTQTYSCSVMHEALHNHYTQKSVEPKSC
chain 2: DIQMTQSPSSLSASVGDRVTITCRASQDIRNYLNWYQQKPGKAPKLLIYYTSRLHSGVPSRFSGSGSGTDFTFTISSLQPEDIATYYCQQGNTLPWTFGQGTKLEIKRGGGGSGGGGSGGGGSQVQLVQSGAEVKKPGSSVKVSCKASGGTFSGYTMNWVRQAPGQGLEWMGLINPYKGVSTYNGKFKDRVTITADKSTSTAYMELSSLRSEDTAVYYCARSGYYGDSDWYFDVWGQGTLVTVSSSGGGSGGGGSDKTHTCPPCPAPPVAGPSVFLFPPKPKDTLMISRTPEVTCVVVDVSHEDPEVKFNWYVDGVEVHNAKTKPREEQYNSTYRVVSVLTVLHQDWLNGKEYKCKVSNKGLPSSIEKTISKAKGQPREPSVFIFPPSDEQLKSGTASVVCLVNNFYPRDIAVEWEVDNALQSGNSQESVTEQDSKDSTYSLSSTLTLSKADYEKHKVYSCSVMHEALHNHYTQKSFNRGECGGGGSGGGGSGGGGSGTGGSGG
Cytotxicity IC50 [1]: 0.2 nM

B3: Her3N-CD3N-hFc1k (bispecific antibody)
chain 1: B1 chain 1
chain 2: B2 chain 2
notes: also called scFv3-43-CD3-Hinge-Fc1k
EC50 (Her3-Fc fusion protein): 1 nM

B4: Fv13.7-Fc1k (Fc fusion)
chain 1: HVQLVQSGAEVKKPGSSVKVSCKASGYTFTDFYINWVRQAPGQGLEWIGEIVPSQGEAKYNDKFKARVTITADKSTSTAYMELSSLRSEDTAVYYCARWDFLDYWGQGTTVTVSSGTGGGSGPSVFLFPPKPKDTLMISRTPEVTCVVVDVSHEDPEVKFNWYVDGVEVHNAKTKPREEQYNSTYRVVSVLTVLHQDWLNGKEYKCKVSNKGLPSSIEKTISKAKGQPREPSVFPLAPSSKSTSGGTAALGCLVKDYFPSDIAVEWESGALTSGVHTFPAVLQSSGLYSLSSVVTVPSSSLGTQTYSCSVMHEALHNHYTQKSVEPKSC
chain 2: DVQMTQSPSSLSASVGDRVTITCRSSQSLLHSNGNTYLHWYQQKPGKAPKLLIYTVSNRFSGVPSRFSGSGSGTDFTLTISSLQPEDFATYYCSQSTHVPYTFGGGTKVEIKGTGGGSGPSVFLFPPKPKDTLMISRTPEVTCVVVDVSHEDPEVKFNWYVDGVEVHNAKTKPREEQYNSTYRVVSVLTVLHQDWLNGKEYKCKVSNKGLPSSIEKTISKAKGQPREPSVFIFPPSDEQLKSGTASVVCLVNNFYPRDIAVEWEVDNALQSGNSQESVTEQDSKDSTYSLSSTLTLSKADYEKHKVYSCSVMHEALHNHYTQKSFNRGEC
factor of increased inhibitory potential (IL-8 inhibition) compared to ATROSAB [2]: 2.5 fold | fold reduced bioactivity (IL-8 inhibition) compared to Fab13.7 [2]: 1.5 fold | IL-8 Inhibition IC50 [3]: 39.7 nM | fold reduced binding affinity compared with Fab13.7 [4]: 1.9 fold | EC50 [5]: 1.18 nM

B5: Fab13.7 (Fab, V domains shown)
VH: HVQLVQSGAEVKKPGSSVKVSCKASGYTFTDFYINWVRQAPGQGLEWIGEIVPSQGEAKYNDKFKARVTITADKSTSTAYMELSSLRSEDTAVYYCARWDFLDYWGQGTTVTVSS
VL: DVQMTQSPSSLSASVGDRVTITCRSSQSLLHSNGNTYLHWYQQKPGKAPKLLIYTVSNRFSGVPSRFSGSGSGTDFTLTISSLQPEDFATYYCSQSTHVPYTFGGGTKVEIK
notes: Monovalent anti-human TNFR1 control Fab; Its variable domains are those used in Fv13.7-Fc1k and Fv13.7x-Fc1k
EC50 [6]: 0.17 nM | IC50, IL-6 release (HeLa cells) [2]: 31.7 nM | IL-8 Inhibition IC50 [3]: 26.3 nM | IL-8 Inhibition IC50 [7]: 13 nM | IC50, Cell death induction [nM] (Kym-1 cells, 0.01 nM TNF) [8]: 9.5 nM | IC50, IL-6 [nM] (HeLa cells, 0.1 nM TNF) [8]: 37.1 nM | IC50, IL-8 [nM] (HT1080 cells, 0.1 nM TNF) [8]: 12.7 nM | EC50 [5]: 0.61 nM | EC50 [9]: 0.9 nM
